Data published in patent US20180057581A1 (MorphoSys, published 2018).

Key:
Fibrinogen (bovine) = target: T1, Fibrinogen (bovine) (bovine, UniProt P02672 20-615; P02676 1-468; P12799 25-444); assay: MSD specificity profiling, coated protein
T1 sequence (looked up) 1: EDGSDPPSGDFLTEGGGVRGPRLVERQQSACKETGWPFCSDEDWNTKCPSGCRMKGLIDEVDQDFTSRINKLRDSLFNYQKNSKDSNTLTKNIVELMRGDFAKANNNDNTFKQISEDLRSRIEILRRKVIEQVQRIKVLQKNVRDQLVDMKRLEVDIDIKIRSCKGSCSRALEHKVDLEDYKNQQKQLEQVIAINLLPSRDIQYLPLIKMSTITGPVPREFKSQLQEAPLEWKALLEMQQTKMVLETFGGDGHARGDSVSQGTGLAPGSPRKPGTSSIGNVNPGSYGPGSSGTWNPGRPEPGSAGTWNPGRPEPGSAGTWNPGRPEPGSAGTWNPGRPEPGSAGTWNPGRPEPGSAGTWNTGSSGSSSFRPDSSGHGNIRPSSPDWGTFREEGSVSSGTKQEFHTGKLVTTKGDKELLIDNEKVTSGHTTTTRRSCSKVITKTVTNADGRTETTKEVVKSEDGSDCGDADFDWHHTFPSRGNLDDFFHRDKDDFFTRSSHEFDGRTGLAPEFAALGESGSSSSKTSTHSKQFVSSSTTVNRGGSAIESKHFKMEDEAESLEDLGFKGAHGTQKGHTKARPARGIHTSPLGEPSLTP
T1 sequence (looked up) 2: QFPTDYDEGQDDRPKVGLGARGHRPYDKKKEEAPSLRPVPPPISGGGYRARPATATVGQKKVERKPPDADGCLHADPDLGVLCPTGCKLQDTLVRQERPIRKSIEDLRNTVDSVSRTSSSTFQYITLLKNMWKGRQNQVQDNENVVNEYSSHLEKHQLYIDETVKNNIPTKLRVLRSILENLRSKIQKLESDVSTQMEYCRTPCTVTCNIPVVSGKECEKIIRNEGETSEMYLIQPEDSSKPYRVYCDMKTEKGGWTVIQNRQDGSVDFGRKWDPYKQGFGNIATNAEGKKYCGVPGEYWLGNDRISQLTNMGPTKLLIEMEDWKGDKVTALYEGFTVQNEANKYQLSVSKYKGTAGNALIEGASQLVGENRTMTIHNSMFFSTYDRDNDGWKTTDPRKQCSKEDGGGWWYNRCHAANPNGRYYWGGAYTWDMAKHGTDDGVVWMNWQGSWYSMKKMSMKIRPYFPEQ
T1 sequence (looked up) 3: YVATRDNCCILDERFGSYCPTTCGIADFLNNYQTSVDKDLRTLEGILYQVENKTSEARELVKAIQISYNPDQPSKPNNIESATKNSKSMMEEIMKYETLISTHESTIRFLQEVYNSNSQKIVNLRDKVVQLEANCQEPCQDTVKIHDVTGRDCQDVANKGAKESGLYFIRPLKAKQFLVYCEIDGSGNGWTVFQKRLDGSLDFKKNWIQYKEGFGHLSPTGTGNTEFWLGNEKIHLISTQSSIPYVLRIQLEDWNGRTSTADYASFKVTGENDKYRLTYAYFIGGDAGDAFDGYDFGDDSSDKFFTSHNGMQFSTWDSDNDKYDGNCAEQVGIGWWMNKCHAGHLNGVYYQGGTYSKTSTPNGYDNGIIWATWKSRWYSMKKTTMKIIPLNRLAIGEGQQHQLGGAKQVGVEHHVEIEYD
Experimental: (§1) For this specificity profiling test the different proteins and controls were coated on two 384-well MSD plates with a concentration of 1 μg/ml at 4° C. over night. Plates were blocked with BSA and washed three times with PBS with 0.05% (v/v) Tween 20. Antibody samples were diluted to 100 nM and 10 nM in assay buffer (PBS with 0.5% (w/v) BSA, 0.05% (v/v) Tween 20). […] Samples and controls were incubated for three hours at room temperature. The plates were washed three times and 30 μl detection antibody (ECL-labeled anti-human Fab) were added per well and incubated for 1 h. After washing, MSD Read Buffer T with surfactant was added and electrochemiluminescence signals were detected using a Sector Imager 6000 (Meso Scale Discovery, Gaithersburg, Md., USA).

Cytochrome c (cow) = Cytochrome c (cow) (cow, UniProt P62894 2-105); assay: MSD specificity profiling, coated protein
Experimental: as §1

Serum albumin (human) = Serum albumin (human) (human, UniProt P02768 25-609); assay: MSD specificity profiling, coated protein
Experimental: as §1

Lysozyme (chicken) = Lysozyme (chicken) (chicken, UniProt P00698 19-147); assay: MSD specificity profiling, coated protein
Experimental: as §1

RNase B (cow) = target: T2, RNase B (cow) (cow, UniProt P61823 27-150); assay: MSD specificity profiling, coated protein
T2 sequence (looked up): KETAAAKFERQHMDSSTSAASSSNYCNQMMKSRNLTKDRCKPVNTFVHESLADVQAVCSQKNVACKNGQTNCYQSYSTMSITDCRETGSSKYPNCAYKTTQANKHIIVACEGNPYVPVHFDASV
Experimental: as §1

Pepsinogen (pork) = Pepsinogen (pork) (pork, UniProt P00791 16-385); assay: MSD specificity profiling, coated protein
Experimental: as §1

RNase A (cow) = target: T3, RNase A (cow) (cow, UniProt P61823 27-150); assay: MSD specificity profiling, coated protein
T3 sequence (looked up): T2 sequence (looked up)
Experimental: as §1

Transferrin (bovine) = Transferrin (bovine) (bovine, UniProt Q29443 20-704); assay: MSD specificity profiling, coated protein
Experimental: as §1

Antitrypsin (human) = Antitrypsin (human) (human, UniProt P01009 25-418); assay: MSD specificity profiling, coated protein
Experimental: as §1

[1] = target: T4, Recombinant cynomolgus monkey sgM-CSF (cynomolgus (Macaca fascicularis), UniProt P09603 33-255 (human entry), limits assumed); assay: Receptor binding assay, inhibition of cynomolgus M-CSF binding to M-CSF receptor (competitor CSF1-R-Fc); Table 12 summary
T4 construct: used also where only 'cynomolgus M-CSF' is printed (ELISA result, SET); also called cynomolgus sgM-CSF; cyno sgM-CSF
T4 chain: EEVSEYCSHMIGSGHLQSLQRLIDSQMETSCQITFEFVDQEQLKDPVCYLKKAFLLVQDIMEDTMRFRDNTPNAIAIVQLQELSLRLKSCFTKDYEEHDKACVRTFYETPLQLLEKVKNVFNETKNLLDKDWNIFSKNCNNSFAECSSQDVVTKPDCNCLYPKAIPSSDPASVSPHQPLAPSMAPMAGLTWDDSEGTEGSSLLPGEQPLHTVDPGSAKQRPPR
Experimental: Complexes were then transferred to 384 well MSD plates coated with 2 μg/ml of the corresponding receptor. Plates were then washed and incubated with the streptavidin/ECL conjugate for 2 h with shaking at room temperature. 35 μl MSD read buffer T with surfactant was then added per well and subsequently measured using MSD Sector Imager 6000.

Sequence of Cytochrome c (cow) (P62894 2-105 limits assumed): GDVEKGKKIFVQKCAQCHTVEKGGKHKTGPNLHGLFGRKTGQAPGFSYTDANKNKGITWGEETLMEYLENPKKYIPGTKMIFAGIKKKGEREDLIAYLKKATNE
Sequence of Antitrypsin (human) (P01009 25-418 limits assumed): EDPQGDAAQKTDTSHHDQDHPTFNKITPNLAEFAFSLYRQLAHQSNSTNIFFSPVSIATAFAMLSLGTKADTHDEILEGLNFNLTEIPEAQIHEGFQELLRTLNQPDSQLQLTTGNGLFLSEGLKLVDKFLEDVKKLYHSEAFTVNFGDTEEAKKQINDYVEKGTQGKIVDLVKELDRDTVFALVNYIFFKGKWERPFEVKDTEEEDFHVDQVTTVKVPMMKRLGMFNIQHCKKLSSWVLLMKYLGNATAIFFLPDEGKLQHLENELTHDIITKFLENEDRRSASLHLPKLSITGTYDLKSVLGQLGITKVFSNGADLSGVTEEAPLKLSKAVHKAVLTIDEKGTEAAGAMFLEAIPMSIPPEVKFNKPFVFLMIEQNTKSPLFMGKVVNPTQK
Sequence of Transferrin (bovine) (Q29443 20-704 limits assumed): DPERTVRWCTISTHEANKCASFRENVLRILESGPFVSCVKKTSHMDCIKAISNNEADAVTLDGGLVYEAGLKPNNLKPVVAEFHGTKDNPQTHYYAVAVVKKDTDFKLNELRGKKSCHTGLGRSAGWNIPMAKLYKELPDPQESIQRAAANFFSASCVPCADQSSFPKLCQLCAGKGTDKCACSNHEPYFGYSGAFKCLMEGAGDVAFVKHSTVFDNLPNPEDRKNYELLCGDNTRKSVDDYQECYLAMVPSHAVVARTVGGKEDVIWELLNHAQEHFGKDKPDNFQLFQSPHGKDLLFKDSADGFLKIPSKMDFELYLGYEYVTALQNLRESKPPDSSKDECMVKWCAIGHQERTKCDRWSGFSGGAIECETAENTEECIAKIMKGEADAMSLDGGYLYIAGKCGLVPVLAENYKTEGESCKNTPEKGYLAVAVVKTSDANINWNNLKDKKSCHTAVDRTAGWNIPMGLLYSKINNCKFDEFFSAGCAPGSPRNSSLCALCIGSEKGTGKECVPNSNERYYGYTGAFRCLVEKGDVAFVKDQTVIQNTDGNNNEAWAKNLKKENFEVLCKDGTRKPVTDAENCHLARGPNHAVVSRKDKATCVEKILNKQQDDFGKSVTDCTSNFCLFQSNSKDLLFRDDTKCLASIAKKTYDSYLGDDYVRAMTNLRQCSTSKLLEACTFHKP
Sequence of Lysozyme (chicken) (P00698 19-147): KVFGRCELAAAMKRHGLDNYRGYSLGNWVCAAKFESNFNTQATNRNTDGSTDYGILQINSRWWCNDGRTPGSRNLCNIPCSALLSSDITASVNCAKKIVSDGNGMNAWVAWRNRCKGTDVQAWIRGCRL
Sequence of Pepsinogen (pork) (P00791 16-385): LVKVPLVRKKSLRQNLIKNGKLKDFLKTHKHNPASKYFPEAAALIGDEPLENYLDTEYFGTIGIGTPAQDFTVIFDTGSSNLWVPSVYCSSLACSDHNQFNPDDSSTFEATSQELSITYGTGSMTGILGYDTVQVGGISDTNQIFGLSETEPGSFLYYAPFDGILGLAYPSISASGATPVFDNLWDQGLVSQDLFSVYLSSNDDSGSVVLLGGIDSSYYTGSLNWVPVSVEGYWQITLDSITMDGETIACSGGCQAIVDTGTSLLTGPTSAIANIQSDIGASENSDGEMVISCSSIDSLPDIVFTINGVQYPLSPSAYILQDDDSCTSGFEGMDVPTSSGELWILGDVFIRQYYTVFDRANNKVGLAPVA

B1: Camille (format not stated) (antibody, V domains shown)
VH: QVQLQQSGPGLVKPSQTLSLTCAISGESVSTSSAAWNWIRQSPSRGLEWLGRTYYRSKWKHEYAVSVKSRITINPDTSKNQFSLQLNSVTPEDTAVYYCARDRYYYSAFDYWGQGTLVTVSS
VL: QSALTQPASVSGSPGQSITISCTGTSSDVGGYNSVSWYQQHPGKAPKLLIYAVSNRPSGVSNRFSGSKSGNTASLTISGLQAEDEADYYCASYDERFTRVFGGGTKLTVLG
notes: also called Antibody Camille
binding result (Fibrinogen (bovine)): no binding (tested: 100 nM and 10 nM antibody) | binding result (Cytochrome c (cow)): no binding (tested: 100 nM and 10 nM antibody) | binding result (Serum albumin (human)): no binding (tested: 100 nM and 10 nM antibody) | binding result (Lysozyme (chicken)): no binding (tested: 100 nM and 10 nM antibody) | binding result (RNase B (cow)): no binding (tested: 100 nM and 10 nM antibody) | binding result (Pepsinogen (pork)): no binding (tested: 100 nM and 10 nM antibody) | binding result (RNase A (cow)): no binding (tested: 100 nM and 10 nM antibody) | binding result (Transferrin (bovine)): no binding (tested: 100 nM and 10 nM antibody) | binding result (Antitrypsin (human)): no binding (tested: 100 nM and 10 nM antibody) | IC50 [1]: 6 pM
